Source: publication PMC4976026 (The Journal of allergy and clinical immunology, 2016)

Molecular target: T1, tGFP-tagged Rab27a R82C (human, UniProt P51159 1-221, R82C)
T1 sequence (looked up): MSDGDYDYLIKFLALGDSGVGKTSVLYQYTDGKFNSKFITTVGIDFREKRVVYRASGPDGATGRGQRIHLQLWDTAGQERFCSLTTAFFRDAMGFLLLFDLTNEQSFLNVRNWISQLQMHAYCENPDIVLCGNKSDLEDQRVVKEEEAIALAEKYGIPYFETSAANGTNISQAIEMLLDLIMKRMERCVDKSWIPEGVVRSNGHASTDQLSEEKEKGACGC
Experiment: co-IP

B1: melanophilin (natural protein, human (endogenous in mel1106), UniProt Q9BV36 1-600, looked up)
chain: MGKKLDLSKLTDEEAQHVLEVVQRDFDLRRKEEERLEALKGKIKKESSKRELLSDTAHLNETHCARCLQPYQLLVNSKRQCLECGLFTCKSCGRVHPEEQGWICDPCHLARVVKIGSLEWYYEHVKARFKRFGSAKVIRSLHGRLQGGAGPELISEERSGDSDQTDEDGEPGSEAQAQAQPFGSKKKRLLSVHDFDFEGDSDDSTQPQGHSLHLSSVPEARDSPQSLTDESCSEKAAPHKAEGLEEADTGASGCHSHPEEQPTSISPSRHGALAELCPPGGSHRMALGTAAALGSNVIRNEQLPLQYLADVDTSDEESIRAHVMASHHSKRRGRASSESQIFELNKHISAVECLLTYLENTVVPPLAKGLGAGVRTEADVEEEALRRKLEELTSNVSDQETSSEEEEAKDEKAEPNRDKSVGPLPQADPEVGTAAHQTNRQEKSPQDPGDPVQYNRTTDEELSELEDRVAVTASEVQQAESEVSDIESRIAALRAAGLTVKPSGKPRRKSNLPIFLPRVAGKLGKRPEDPNADPSSEAKAMAVPYLLRRKFSNSLKSQGKDDDSFDRKSVYRGSLTQRNPNARKGMASHTFAKPVVAHQS
**Q.** With B1 as the binder, how does the “fold melanophilin coprecipitated relative to Rab27a D74H” value read?
**A.** 2.7 ± 1.4 fold
